Values joined by “and” are separate entries in the source; they are usually repeats but may differ in a detail not shown here. Equal entries are not always repeated.
T1: Nluc-FZD6-Q171K-Cy3 sensor (human) (UniProt O60353)
T1 sequence (chain, trans-cyclooct-2-ene-L-lysine (TCO*K) at 171, labelled with Tet-Cy3): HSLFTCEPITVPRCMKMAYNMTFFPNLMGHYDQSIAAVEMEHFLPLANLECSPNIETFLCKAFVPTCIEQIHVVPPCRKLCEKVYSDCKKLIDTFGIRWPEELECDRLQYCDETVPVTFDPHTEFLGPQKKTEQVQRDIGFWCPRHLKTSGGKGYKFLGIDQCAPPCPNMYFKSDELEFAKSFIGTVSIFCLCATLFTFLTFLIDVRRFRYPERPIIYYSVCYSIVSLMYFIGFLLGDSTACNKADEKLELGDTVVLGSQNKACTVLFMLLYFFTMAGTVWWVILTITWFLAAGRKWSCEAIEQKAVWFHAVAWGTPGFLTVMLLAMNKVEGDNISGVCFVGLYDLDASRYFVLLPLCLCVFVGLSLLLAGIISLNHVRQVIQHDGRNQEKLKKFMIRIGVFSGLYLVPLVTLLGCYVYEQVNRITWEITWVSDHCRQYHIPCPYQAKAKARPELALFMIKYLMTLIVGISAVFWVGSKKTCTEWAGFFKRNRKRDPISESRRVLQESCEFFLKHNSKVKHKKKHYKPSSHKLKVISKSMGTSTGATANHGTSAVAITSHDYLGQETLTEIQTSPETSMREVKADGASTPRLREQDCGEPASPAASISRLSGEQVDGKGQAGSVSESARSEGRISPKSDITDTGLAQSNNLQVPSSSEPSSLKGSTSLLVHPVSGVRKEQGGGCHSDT

T2: Nluc-FZD6-K466K-Cy3 dimer mutant (D365A/R368A/Y369A) (human) (UniProt O60353)
T2 sequence (chain, trans-cyclooct-2-ene-L-lysine (TCO*K) at 466, labelled with Tet-Cy3): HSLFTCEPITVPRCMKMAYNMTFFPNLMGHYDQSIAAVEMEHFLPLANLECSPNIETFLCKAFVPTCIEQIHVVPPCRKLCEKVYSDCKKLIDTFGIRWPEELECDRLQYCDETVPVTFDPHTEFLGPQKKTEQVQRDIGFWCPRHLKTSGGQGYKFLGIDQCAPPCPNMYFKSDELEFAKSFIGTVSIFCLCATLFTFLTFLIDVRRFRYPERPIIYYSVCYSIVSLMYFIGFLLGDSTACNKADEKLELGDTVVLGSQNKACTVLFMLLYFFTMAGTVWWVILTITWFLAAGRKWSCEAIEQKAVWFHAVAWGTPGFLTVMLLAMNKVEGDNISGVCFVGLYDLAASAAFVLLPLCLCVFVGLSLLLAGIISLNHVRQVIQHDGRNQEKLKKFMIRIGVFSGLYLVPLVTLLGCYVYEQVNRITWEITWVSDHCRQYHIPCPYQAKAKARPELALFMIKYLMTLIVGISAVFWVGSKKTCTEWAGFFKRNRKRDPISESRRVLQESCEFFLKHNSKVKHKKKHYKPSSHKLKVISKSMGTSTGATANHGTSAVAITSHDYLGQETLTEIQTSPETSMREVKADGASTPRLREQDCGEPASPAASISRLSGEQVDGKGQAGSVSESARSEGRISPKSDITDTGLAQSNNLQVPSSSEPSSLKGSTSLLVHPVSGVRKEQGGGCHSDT


Legend:
[1] = biological target: FZD5 CRD (UniProt Q13467); settings: cited from earlier work
[2] = biological target: Nluc-FZD6-K466K-Cy3 sensor (human) (UniProt O60353)
[3] = biological target: T1, Nluc-FZD6-Q171K-Cy3 sensor (human)
[4] = biological target: Nluc-FZD5-Q493K-Cy3 sensor (human) (UniProt Q13467)
[5] = biological target: Nluc-FZD6-K466K-Cy3 sensor (human) (UniProt O60353); remark: listed apart in the source
[6] = biological target: T2, Nluc-FZD6-K466K-Cy3 dimer mutant (D365A/R368A/Y369A) (human)
[7] = biological target: Nluc-FZD6-K466K-Cy3 sensor (human) (UniProt O60353); remark: listed apart in the source

Row | Molecule | Kd [1] | fitted maximal ∆BRET amplitude of the Cy3-labelled sensor upon WNT-5A (3 μg/ml), HEK293T cells [2] | fitted maximal ∆BRET amplitude of the Cy3-labelled sensor upon WNT-5A (3 μg/ml), HEK293T cells [3] | maximal ∆BRET amplitude of the Cy3-labelled sensor upon WNT-5A (3 μg/ml), HEK293T cells [4] | EC50 of the WNT-5A-induced BRET signal of the sensor (concentration-response curve), HEK293T cells [5] | fitted plateau of the WNT-5A-induced BRET response of the sensor, HEK293T cells [6] | fitted plateau of the WNT-5A-induced BRET response of the sensor (experiment beside the dimer mutant), HEK293T cells [7]
1 | WNT-3A (from UniProt P56704) | 3.1 nM | – | – | – | – | – | –
2 | recombinant WNT-5A (ligand) IIGAQPLCSQLAGLSQGQKKLCHLYQDHMQYIGEGAKTGIKECQYQFRHRRWNCSTVDNTSVFGRVMQIGSRETAFTYAVSAAGVVNAMSRACREGELSTCGCSRAARPKDLPRDWLWGGCGDNIDYGYRFAKEFVDARERERIHAKGSYESARILMNLHNNEAGRRTVYNLADVACKCHGVSGSCSLKTCWLQLADFRKVGDALKEKYDSAAAMRLNSRGKLVQVNSRFNSPTTQDLVYIDPSPDYCVRNESTGSLGTQGRLCNKTSEGMDGCELMCCGRGYDQFKTVQTERCHCKFHWCCYVKCKKCTEIVDQFVCK | – | -26.4% | -11.6% | -15.6% | 22.4 nM and 850 ng/ml | -10.2% | -19.7%

Source: PMC8580317
